doi:10.1101/2022.10.11.511805 (bioRxiv, 2022)

B1: REGN3471 (odesivimab) (antibody, V domains shown)
VH: EVQLVESGGGLVQPGGSLRLSCAASGFTFSSYDMHWVRQATGKGLEWVSAIGTAGDTYYPGSVKGRFTISRENAKNSLYLQMNSLRAGDTAVYYCARTWFGELYFDYWGQGTLVTVSS
VL: not shown
B2: REGN3479 (maftivimab) (antibody, V domains shown)
VH: EVQLVESGGGLVQPGGSLRLSCAASGFTSSSYAMNWVRQAPGKGLEWVSTISGMGGSTYYADSVKGRFTISRDNSKNTLYLQMNSLRAEDTAVYYCAKRGYPHSFDIWGQGTMVTVSS
VL: not shown
B3: REGN3470 Fab (Fab, V domains shown)
VH: QVQLVESGGGVVQPGRSLRLSCAASGFTFNNYGMHWVRQAPGMGLEWVAVIWHDGSDKYYADSVKGRFTISRDNSKNTLYLQMNSLRAEDTAVYYCARNWNLFDYWGQGTLVTVSS
VL: DIQMTQSPSSLSASVGDRITITCRASQSISTYLHWYQQKPGKAPKLLIYAASTLQSGVPSRFSGSGSGTDFTLTISSLQPEDFATYYCQQSFSTPPINFGQGTKLEIK

What was measured:
[1] = target: T1, cleaved GP (GPCL): EBOV GP treated with thermolysin, glycan cap removed (Zaire ebolavirus, Mayinga-76, UniProt Q05320); test: SPR
[2] = target: T1, cleaved GP (GPCL): EBOV GP treated with …; test: SEC
Target sequence in this assay (Q05320 33-501, chain 1 of 2): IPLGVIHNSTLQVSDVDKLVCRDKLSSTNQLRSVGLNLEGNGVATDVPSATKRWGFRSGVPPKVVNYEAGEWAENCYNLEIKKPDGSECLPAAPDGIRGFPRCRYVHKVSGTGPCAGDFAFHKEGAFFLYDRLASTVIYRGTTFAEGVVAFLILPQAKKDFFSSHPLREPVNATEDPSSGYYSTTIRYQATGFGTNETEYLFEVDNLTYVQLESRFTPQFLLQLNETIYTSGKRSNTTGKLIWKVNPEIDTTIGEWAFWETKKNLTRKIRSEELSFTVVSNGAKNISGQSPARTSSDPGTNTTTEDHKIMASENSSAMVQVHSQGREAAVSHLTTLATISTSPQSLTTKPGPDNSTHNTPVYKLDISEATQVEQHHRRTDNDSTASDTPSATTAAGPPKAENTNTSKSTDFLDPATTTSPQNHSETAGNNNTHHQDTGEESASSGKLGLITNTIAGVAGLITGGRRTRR
Target sequence in this assay (Q05320 33-650, chain 2 of 2): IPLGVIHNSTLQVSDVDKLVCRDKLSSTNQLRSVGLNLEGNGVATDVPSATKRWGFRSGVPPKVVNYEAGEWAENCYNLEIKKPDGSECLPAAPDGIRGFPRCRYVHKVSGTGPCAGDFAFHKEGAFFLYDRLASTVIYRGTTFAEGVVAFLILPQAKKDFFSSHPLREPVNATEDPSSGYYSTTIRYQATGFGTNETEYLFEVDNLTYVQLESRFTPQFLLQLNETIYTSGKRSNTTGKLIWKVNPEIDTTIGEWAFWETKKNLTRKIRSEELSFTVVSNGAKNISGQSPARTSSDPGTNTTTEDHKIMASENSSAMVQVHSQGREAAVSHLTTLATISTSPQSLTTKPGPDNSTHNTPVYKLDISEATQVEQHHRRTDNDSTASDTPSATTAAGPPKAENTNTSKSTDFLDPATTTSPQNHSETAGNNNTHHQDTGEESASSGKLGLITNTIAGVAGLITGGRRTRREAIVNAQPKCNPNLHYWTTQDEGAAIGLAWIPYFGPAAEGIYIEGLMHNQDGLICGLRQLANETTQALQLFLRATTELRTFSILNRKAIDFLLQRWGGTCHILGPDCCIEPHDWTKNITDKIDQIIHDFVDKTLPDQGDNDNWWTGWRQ

Binder | Kd [1] [nM] | fold reduction of the binding half-life relative to GP [1] [fold] | binding result [2]
B1 | 15.8 | 4 | 
B2 | 0.14 |  | 
B3 |  |  | no binding
